Laboratory results taken from a protein production outcome set (Wang et al. 2014).

Assay: label from the status in PepcDB records

| Sequence | protein production |
| --- | --- |
| MGQQELAFGGGEFHSLWSCRFGAATLARRGCAFRNALAIMRGFPSALAGVRRTMHTLQQLRSGELAGATRLDLSCGLREFPREIFELADSLEVLNLSGNALDSLPDDLGRLHRLKVLFCSANDFDELPAAVGDCPALSMVGFKSNRIERVPAAALPPALRWLILTDNRIATLPEELGRRPLQKLMLAGNRLEALPESMAACEGLELLRIAANRFQRLPAWLATLPRLAWLAYAGNPLCRLPALADSGIAALDWSELSLDGLIGEGASGVIHRAGWHQPDGSTRTVALKLFKGEVTSDGTPASEMAACLAAGRHAQLIEVLGQLAGHPQGRDGLVLELLDDAYRNLAGPPSLESCTRDVYPPGLRFELATALRLAASLAALMAHLHGRGISHGDFYAHNILWREDGACLLGDFGAASFLPDDAVLAGALRRLEVRAFACLLEELLERSEAPPGQASLSAALVELQRRCALPRVSERPDFGEIQAILRDLAARSQAFPQVR | failed |
| KYNPVVNPERALERRNWILGRMLQLGYINQTQYQQAVAEPINLDMPDRGVSNRYPYIGEMVRAELVEKFGEQAVDSGY | failed |
| MFRAMHLSLLGCLLGTSGCHGLPPAPPAPSAAVGNYGEVIDYLQRHIRREMERQDVPGLALALVDDQQLVWARGFGYADRQHRINASEHTAFHAGDLSKLLIASATLQLAERGQLSLDAPLQDTLREFYVRSRFHADQSEADRAITFRRLLSHQSGLPGEHLPPLFGERPNSLGQLPAKVSGVWLSNPPGTQVAHSNLGYELVGAAIERNTGKHFEQHMREHLLDPLQMTRSSFARNALPQAQRAHGYSGGGRPGSASDLPVNDLWSSPVDLSRFVRMLFANGRHKERQLLRKHSVEEMFRQQNAGNALDFDCQVGLAWFLSPCGSAPLEGGIRHYEYASATPGFSAHLILLPEQRLAAIVMSNADDSGSLTASLARQAASLMLQVKQGARRPAVQPTPARAPALEVPSPEDRRQLYGRYATRQGQIRLYERRGRLYADFGEQRVELLRDTSGWLQMRKRLLGFWPVGVDSAGQLQLDVVSYGQRRILVSRRHDQTAYLGERIEPTSLPQAWTEAVGTYRVASTGRHSYLNGLSIRIEDGFLLVRGQAGGTRSGEFILQPIDSAHAVLAGSGQGLGDTFSRDFDGLNALGYRFAQQDTKARPWLQRKESP | failed |
| MDCRKMARFSYSVIWIMAISKVFELGLVAGLGHQEFARPSRGYLAFRDDSIWPQEEPAIRPRSSQRVPPMGIQHSKELNRTCCLNGGTCMLGSFCACPPSFYGRNCEHDVRKENCGSVPHDTWLPKKCSLCKCWHGQLRCFPQAFLPGCDGLVMDEHLVASRTPELPPSARTTTFMLVGICLSIQSYY | failed |
| MAGGHCGSFAAAAASSGEIVQLNVGGTRFSTSRQTLMWIPDSFFSSLLSGRISTLRDETGAIFIDRDPAAFAPILNFLRTKELDLRGVSINVLRHEAEFYGITPLVRRLLLCEELERSSCGSVLFHGYLPPPGIPSRKGTNTARSSVDARNGLSSMEGEARGSGTQPVLAGNGEDTIRLVDKLSVESWPVGVPVDPRKVLIVAGHHNWIVAAYAHFAVCYRIKESSGWQQVFTSPYLDWTIERVALNAKVVGGPHGDKDKMVAVASESSIILWSVQDGGSGSEIGVFSLGVPVDALFFIGNQLVATSHTGKVGVWNAVTQHWQVQDVVPITSYDTAGSFLLLGCNNGSIYYIDMQKFPLRMKDNDLLVTELYHDPSNDAITALSVYLTPKTSVSGNWIEIAYGTSSGAVRVIVQHPETVGSGPQLFQTFTVHRSPVTKIMLSEKHLVSVCADNNHVRTWTVTRFRGMISTQPGSTPLASFKILSLKRQRATAAIPLEMTSGLLENEMINKCLSRRLFPSPTSCLSGCHRLEKGYVRSRLWTALQSPRSLXESARAPAGWAPGQGATCSLATPTAASRCGTXPQPWTWSTRARTRTQAAPLRKSCSSCWTSVIXARPAAPRPTSALPPLCSSTAAFVSPAPAFSSSTTKPSMKQQPMVPRGLTERALCXPEQGGLRASTATGTCRLSISTELXRELSLRMVTRAQPRLRQKGQQQGSVLCVRGSPRGQREDVXGSPMWAXTCTDQRKVCQSPRKGQQRMKMSPKWSSGRKDSKQGDSLEERKFPIWHPHQVPLMEGPTPLVQHPRLQLRPLRHLGTERATPLARSTAC | failed |
| WILASTTEGAPSVAPLNVTVFLNESSDNVDIRWMKPPTKQQDGELVGYRISHVWQSAGISKELLEEVGQNGSRARISVQVHNATCTVRIAAVTRGGVGPFSDPVKIFIPAH | not failed |
| MPQRNDRSRSTPTTSPKNNSWFRMQAGHQSDADIYIYDEIGFWGVTAKQFISDLNALGDITHINLNINSPGGDVFEGIAIFNALKTHGASITVYVDGVAASMASVIAMVGKPVIMPENSFMMIHKPFGFTGGDAEDMRTYADLLDKVEAVLLPAYAQKTGKTTDEIAAMLADETWMSGAECLAHGFADQVTPAVKAMACIQSKRTEEFKKMPESIRNMITPPRNSAPRVQDDGPAASRTPVQAAAPVVDENSIRAQVLAEQKARVNGINDLFAMFGGRYQTLQAQCLADPECSLEQAREKLLNEMGRESTPSNKNTPXHIYAGNGNFVGDGIRQALMARAGFEKTERDNVYNGMTLREYARMSLTERGIGVSSYNPMQMVGAAFTHSTSDFGNILLDVANKAILQGWEDAPETYEQWTRKGQLSDFKIAHRVGMGGFSALRQVREGAEYKYVTTGDKQATIALATYGELFSITRQAIINDDLNMLTDVPMKLGRAAKSTIADLVYAILTSNPKISTDNVSLFDKAKHANVLESAAMDVASLDKARQLMRVQKEGERHLNIRPAFVLVPTAMESVANQVIRSSSVKGADINAGIINPVKDFATVIAEPRLDDNSQTTFYLAASKGSDTIEVAYLNGVDTPYIDQMEGFSVDGVTTKVRIDAGVAPVDHRGLVKCTA | failed |
| MVKVLTACGNGMGSSMVIKMKVENALRQLGVSDIESASCSVGEAKGLASNYDIVVASNHLIHELDGRTNGKLIGLDNLMDDNEIKTKLEEALK | failed |
| MLETLHLTPLDRWIDAWLAHQRALGRAYDNEGWILGHLRRFIVSSEAGDLDQKGFDRWCASLRHLSPTTRRGRQFVVRKLCLFRRRAEPGCFVPDSIYFARKLPYRRPVILEPAQVSRMLAAADGLAPTTNSPLLPAVMRLATIILYTAGLRRGELARLTLDDVEPQSGLLRIRQSKFHKSRLVPLSPDAAGALRTYLHLRLAPSFNADPSSALLCCGRAGRRGYTGAGLGQAINRLFVTADVRDSEGRLPRVHDIRHSFGVQALIRWYRAGADVQSCLPSLAIYMGHVSVVSTAHYLHFVPTMRELASSRFEAAFGNIVVEAKP | failed |
| RTRHLFEMTRELSRALTLEEVVRTSYHFLSSAFDAKVCLLMPNHHGELTPYNAEGMGQLPIDSGIARWCWDKDQIAGAGTDTLPSVPYQLHPISASQQVLAILAIEPNNLRQVLIPEQQQLLQTFNGLIANALERLQQAEMAEQSRINIEREQ | not failed |
| AIYVDLPNRQLKVKVADRRVISTTDAERQAVTPPGLQEAINDLVKKYTLARAFVRPSGTEDIVRVYAEANSQESADRLAYEVSLLVFQLAGGIGERPQP | not failed |
| MKQPTLAVIMTCHNRRNTTLACLQALYQQKNHFDVYLTDDGSTDGTAEFIKAEYPDVKIFQGDGNLFWVGGMHLAFGEAIKNQYDYYLWLNDDTFLEADALEKLLQVHENLAVEGYGQSIVVGSTQDPITKQATYGGAVKSKKWYSNKFEFLEPTSDVQKCDAMYGNCVLIPHSVTLKVGNIDTAFIHSLGDLDYALRARNLGCHVWVAPGYIGTCNKNSVRNSWVDTKLPVLERLRKILQIKGFPLKPWTTFCSRHSGPFWIFYWFLPYIRAIIGYKNLATSPTFSEDPKETKPEV | failed |
| MRRRVAYARDYGDHIMGKFKFPTAYTILFVLIALVAAMTWIVPAGKYQMVTNAALGKEVPVAGTYAPVEAQPQGITAVLLAPIDGLYNHQTYTAGAIDVALFVLIIGGFLGVVNKTGAIDAGIERVTTRLNGREEWMIPILMALFAAGGTIYGMAEESLPFYTLLVPVMMAARFDPLVAAATVLLGSGIGTLGSTINPFATVIAANAAGIPFTQGILLRVILLLVGYVICVYWVMRYARKVRNSPESSIVADKMAENQAHFLGNRSETMLEFTPTRKAILILFAASFAFMIYGVAVLGWWMAEISAVFLAAAVIVGVIARMGEETFTSTFIDGARDLLGVALIIGIARGIVVVMDNGMITHTILHSAENLVSGLSTTVFINVTYWLEVLLSFLVPSSSGLAVLTMPIMAPLADFAHVQRDLVVTAYQSASGVVNLITPTSAVVMGGLAIARVPWVRYLRWVAPLLLILTMLNMIVLSIAAMI | failed |
| MKQARRHCWRRGIAATLIGGVISRRGTRASIGRDGLQLRFAALPWRTRCVAAAFCRFVKRSTRTPRARQESAVGLATLDIVIVLVYLTGIFVLAQWVSREKAGHSKSAEDYFLASKSLPWWAIGASLIAANISAEQIIGMAGSGYAIGLAIASYEWMAALTLLIVGKFFLPIFLRNGIYTMPQFLEQRYGKWIRTLMAVFWLLLYVFVNLTSILWLGSIAVSQVTGMDQTLALALIGVFALVYQLYGGLKAVALTDIVQVTLLVLGGLLVAALTLARIGDGAGVLEGFQHLWNAHPEHFHMILTKDNPFYKDLPGLSVLLGGLWVMNISYWGFNQYIIQRALAAKNIGEAQKGMVFAAFLKLLMPLVIVVPGIAAVVLAPDLAKPDQAYPTMMQLLPTGMLGLVFAALVAAIVASLASKINSVATIFTLDFYAKFRPQTEQKQLVRVGRIVAAVSVLIGILTARPLLGNFDQGFQFIQEFTGFFTPGVVVIFMLGLFWKRANEAGALTAAIGSVVLSFVLKFAWPELPFMDRIGVVFVAALMLAVLVSLLTPATQARDLIRTNEVAYGTTLSFKIGAAGVIAILIVLYTVFW | failed |
| MDLFPVLKELAQKTPSKILLIVLDGVGGLPLEPGGPTELEAAKTPNLDRLAEESALGLLTPVYPGLAPGSGPGHLALFGYDPFRYVVGRGALSALGLGADFREGDVALRGNFATLDPEGKVVDRRAGRPPTEENQRVIAKLKEAIPRIEDVEVLFYTESEHRFLVILRGEGLEDKVTDTDPQKTGLPPLKAKALDEASERTARLVNLLSERIREVLKDEPRMNGALFRGASKKPSFPRMQEVYKLTPAAIASYPMYKGLASLVGMEVLPVEGEGDALEGKLKALKENWGRYDFFYFHVKKTDAMGEDGNFHGKVEKVELFDALLPEILALGPDVLAITGDHSTPALLKAHSWHPVPLLLKAPYLRADEARRFTEREAQRGSLGHLRGVELMPLLLAHAGKLLKYGA | failed |
| MVNLMKNEKEINGKKSHFFSLSESRFMRFLGGNDLIYALIALVLLGIVIFIFDKISYVFQPFIIVFNTIAAPIIVSLVLFYLFNPIVNMMERYRIPRLLGITIIYVAIIGIITLIVNLLIPIIGSQIESFIKNTPNYLHKITRSLDKLNNNTILSGYMGQVNEWLESAQKKIPSMVSDYSDGFGSKLATFAEAVANIGIVIGTTPFVLFFMLKDGHKFKDYTTKIMPPKFRKDFHDLLEKMSVQVGSYIQGQIIVSFCIGLLLFIGYSIIGLKYALVLASIAAVTSVVPYLGPTIAISPAIVIAIITSPLMLLKLAVVWTLVQFFEGHFISPNVMGKTLKIHPLTIIFILLCAGNLMGIVGVIIGIPLYAVLKVLVSHIFMLFKRRYNRYYGNDAGEYTITEEEKGIKQ | failed |
| MSATRHRSDGHEEIVALDALPLSAAIRRRELSCREVMQAYLAQIERFNPRVNAIVSLQAESRLLTQADERDRQLARGEWLGWMHGMPQAIKDLAATSGIPTTLGSPLFAGQVPEHDAIVVERVKSSGAIVIGKTNVPEFGLGSQTYNPLFGTTRNAYDPARIAGGSSGGAAVALALRMLPVADGSDMMGSLRNPAAYNNVYGFRPSQGRVPHGPQAELFVQQLATEGPMGRSVADLARLLATQAGYDPRCPLSLRDDPRRFADDLGRDFRGARLGWLGDYAGYLPMEEGVLELCEAALGDFAELGCDVEACLPDYPLERLWRTWLVHRQWLVQGSLGELYADPARRVRLKPEAQWEVESGLGLGAAEVYRASLDRSDWYRALARLFERYDFLLLPSAQVFPFDAETAWPRQVAGRPMDTYHRWMEVVIGPTLAGLPAISVPIGFGAAGLPMGLQIIGPAQADLAVLQLAHAHEGLTRWVSRRPPAMLEAPGGI | failed |
